Holding throughout (conditions): both partners purified
Test [1] concerns the target T1, R411A-α2 (E. coli class Ia ribonucleotide reductase subunit α2 with the R411A substitution) (E. coli, UniProt P00452 1-761, R411A).
T1 construct: Ribonucleoside-diphosphate reductase 1 subunit alpha (α, NrdA), E. coli; GCG (Ala) inserted at position 411; the construct has an N-terminal (His)6-tag with a 10 amino acid linker; Homodimer (α2); source: E. coli, expressed from pET28a-nrdA, purified by previous protocols; pre-reduced with 30 mM DTT and 15 mM HU before use
T1 sequence: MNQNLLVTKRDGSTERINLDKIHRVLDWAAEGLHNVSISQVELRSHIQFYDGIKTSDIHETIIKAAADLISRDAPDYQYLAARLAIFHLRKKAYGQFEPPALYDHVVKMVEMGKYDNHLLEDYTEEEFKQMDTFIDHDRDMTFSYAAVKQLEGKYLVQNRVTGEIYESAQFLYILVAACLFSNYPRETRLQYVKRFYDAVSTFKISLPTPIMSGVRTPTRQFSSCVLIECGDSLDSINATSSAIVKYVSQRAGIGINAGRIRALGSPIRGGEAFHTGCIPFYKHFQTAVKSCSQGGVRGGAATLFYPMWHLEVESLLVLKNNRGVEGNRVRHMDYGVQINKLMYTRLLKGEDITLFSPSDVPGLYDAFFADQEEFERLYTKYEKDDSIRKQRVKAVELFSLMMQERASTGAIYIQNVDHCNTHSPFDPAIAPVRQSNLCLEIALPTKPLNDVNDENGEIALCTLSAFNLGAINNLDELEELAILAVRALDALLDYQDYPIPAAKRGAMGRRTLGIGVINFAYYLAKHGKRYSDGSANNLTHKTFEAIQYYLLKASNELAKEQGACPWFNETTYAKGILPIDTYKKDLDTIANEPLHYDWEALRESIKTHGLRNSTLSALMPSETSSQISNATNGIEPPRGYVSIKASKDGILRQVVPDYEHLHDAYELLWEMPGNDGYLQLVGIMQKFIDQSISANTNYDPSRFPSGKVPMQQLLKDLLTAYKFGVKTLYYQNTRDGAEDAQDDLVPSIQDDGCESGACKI
The test can be described thus: spectrophotometric competitive inhibition assay (enzyme activity); R411A-α2 used as the inhibitor, 10 nM to 5 μM; D2O assay buffer; relative activities in the presence of inhibitor fit to the standard Kd equation (eq. 1); average of two replicates.

For test [2], the target named is T2, R411A-α2, E. coli class Ia ribonucleotide reductase subunit α2 with R411A (E. coli, UniProt P00452 1-761, R411A).
T2 construct: E. coli class Ia ribonucleotide reductase subunit alpha (nrdA) with R411A; a 10 amino acid linker follows the N-terminal (His)6-tag; source: pre-reduced with 30 mM DTT and 15 mM HU before use
T2 sequence (looked up): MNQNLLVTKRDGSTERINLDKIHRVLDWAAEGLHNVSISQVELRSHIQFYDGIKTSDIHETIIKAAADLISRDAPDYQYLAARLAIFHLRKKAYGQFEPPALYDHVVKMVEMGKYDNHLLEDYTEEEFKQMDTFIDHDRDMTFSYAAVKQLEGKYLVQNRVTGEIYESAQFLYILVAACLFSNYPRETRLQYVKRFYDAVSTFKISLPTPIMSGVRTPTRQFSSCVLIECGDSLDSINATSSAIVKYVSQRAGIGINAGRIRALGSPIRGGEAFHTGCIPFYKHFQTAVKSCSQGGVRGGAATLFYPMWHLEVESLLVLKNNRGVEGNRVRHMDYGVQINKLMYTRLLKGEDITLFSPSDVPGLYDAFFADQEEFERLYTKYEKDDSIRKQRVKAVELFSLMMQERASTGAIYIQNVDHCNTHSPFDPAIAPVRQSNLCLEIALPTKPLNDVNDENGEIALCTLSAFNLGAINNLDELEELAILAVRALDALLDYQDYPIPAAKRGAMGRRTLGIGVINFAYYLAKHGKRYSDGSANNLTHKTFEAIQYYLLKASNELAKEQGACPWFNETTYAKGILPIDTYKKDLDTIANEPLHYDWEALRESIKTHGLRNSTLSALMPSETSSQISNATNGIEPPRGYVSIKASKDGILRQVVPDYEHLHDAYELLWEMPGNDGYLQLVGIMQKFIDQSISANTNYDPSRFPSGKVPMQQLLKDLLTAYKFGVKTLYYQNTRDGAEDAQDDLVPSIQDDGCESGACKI
The test is described as follows: competitive inhibition assay; Kd for α2 mutant and wt-β2, determined in H2O and D2O buffers by the competitive inhibition assay of ref. 42; details in SI-2, Fig. S2.

Test [3] concerns the target T3, NH2Y731/R411A-α2, E. coli class Ia ribonucleotide reductase subunit α2 with 3-aminotyrosine at 731 and R411A (E. coli, UniProt P00452 1-761, R411A, 3-aminotyrosine (NH2Y) at 731 in place of Y731).
T3 construct: E. coli class Ia ribonucleotide reductase subunit alpha (nrdA) with R411A and the unnatural amino acid 3-aminotyrosine incorporated at position 731; a 10 amino acid linker follows the N-terminal (His)6-tag; With β2, CDP and ATP the 3-aminotyrosine at 731 is oxidised to the radical NH2Y731˙ (ND2Y731˙ in D2O); also called ND2Y731˙/R411A-α2; ND2Y731˙/R411A-α; source: pre-reduced with 30 mM DTT and …
T3 sequence (looked up): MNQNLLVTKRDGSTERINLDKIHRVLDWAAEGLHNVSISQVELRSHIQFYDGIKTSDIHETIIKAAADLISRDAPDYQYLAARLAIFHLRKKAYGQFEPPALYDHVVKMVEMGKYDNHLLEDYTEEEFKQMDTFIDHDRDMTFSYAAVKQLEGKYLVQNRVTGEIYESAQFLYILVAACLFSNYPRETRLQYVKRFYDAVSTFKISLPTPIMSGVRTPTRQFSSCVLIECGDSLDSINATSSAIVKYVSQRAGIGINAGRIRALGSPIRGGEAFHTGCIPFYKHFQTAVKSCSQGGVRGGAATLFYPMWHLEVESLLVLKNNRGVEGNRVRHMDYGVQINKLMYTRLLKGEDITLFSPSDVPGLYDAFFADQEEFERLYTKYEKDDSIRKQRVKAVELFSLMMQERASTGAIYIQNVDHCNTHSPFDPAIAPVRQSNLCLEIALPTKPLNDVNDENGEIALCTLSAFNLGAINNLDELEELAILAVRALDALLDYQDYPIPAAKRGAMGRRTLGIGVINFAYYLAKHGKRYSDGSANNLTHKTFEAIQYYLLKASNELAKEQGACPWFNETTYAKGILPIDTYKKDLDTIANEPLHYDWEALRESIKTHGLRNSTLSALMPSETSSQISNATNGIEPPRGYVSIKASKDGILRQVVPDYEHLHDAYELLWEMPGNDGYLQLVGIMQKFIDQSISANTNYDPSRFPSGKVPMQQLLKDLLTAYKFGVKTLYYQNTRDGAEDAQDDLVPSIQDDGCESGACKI
The test is described as above.

The record followed here is article PMC5968753, “Radical transfer in E. coli ribonucleotide reductase: a NH2Y731/R411A-α mutant unmasks a new conformation of the pathway residue 731† †Electronic supplementary information (ESI) available. See DOI: 10.1039/c5sc03460d” (Chemical Science, 2015).

As usually defined, the Kd is the constant that tells how readily two partners part at equilibrium.

B1: wt-β2 (E. coli class Ia ribonucleotide reductase subunit β2, wild type) (enzyme, UniProt P69924 1-376, looked up)
chain: MAYTTFSQTKNDQLKEPMFFGQPVNVARYDQQKYDIFEKLIEKQLSFFWRPEEVDVSRDRIDYQALPEHEKHIFISNLKYQTLLDSIQGRSPNVALLPLISIPELETWVETWAFSETIHSRSYTHIIRNIVNDPSVVFDDIVTNEQIQKRAEGISSYYDELIEMTSYWHLLGEGTHTVNGKTVTVSLRELKKKLYLCLMSVNALEAIRFYVSFACSFAFAERELMEGNAKIIRLIARDEALHLTGTQHMLNLLRSGADDPEMAEIAEECKQECYDLFVQAAQQEKDWADYLFRDGSMIGLNKDILCQYVEYITNIRMQAVGLDLPFQTRSNPIPWINTWLVSDNVQVAPQEVEVSSYLVGQIDSEVDTDDLSNFQL
modifications: tyrosyl radical at Y122 (1.2 Y•/β2), di-iron cofactor
notes: Ribonucleoside-diphosphate reductase 1 subunit beta (β, NrdB), E. coli, wild type; Y122 is Y123 in P69924); Homodimer (β2); source: expressed and purified by standard protocols (7000 nmol min^-1 mg^-1, 1.2 Y•/β2)
With B1, in test [1], the Kd was 0.9 ± 0.19 µM.

B2: wt-β2, E. coli class Ia ribonucleotide reductase subunit β2 (enzyme, UniProt P69924 1-376, looked up)
chain: MAYTTFSQTKNDQLKEPMFFGQPVNVARYDQQKYDIFEKLIEKQLSFFWRPEEVDVSRDRIDYQALPEHEKHIFISNLKYQTLLDSIQGRSPNVALLPLISIPELETWVETWAFSETIHSRSYTHIIRNIVNDPSVVFDDIVTNEQIQKRAEGISSYYDELIEMTSYWHLLGEGTHTVNGKTVTVSLRELKKKLYLCLMSVNALEAIRFYVSFACSFAFAERELMEGNAKIIRLIARDEALHLTGTQHMLNLLRSGADDPEMAEIAEECKQECYDLFVQAAQQEKDWADYLFRDGSMIGLNKDILCQYVEYITNIRMQAVGLDLPFQTRSNPIPWINTWLVSDNVQVAPQEVEVSSYLVGQIDSEVDTDDLSNFQL
modifications: tyrosyl radical at Y122 (1.2 Y˙/β2)
notes: E. coli class Ia ribonucleotide reductase subunit beta, with the di-iron tyrosyl radical cofactor (FeIII2–Y122˙)
As to B2, the Kd in test [2] is 0.94 ± 0.33 µM; in test [3], 0.008 ± 0.001 µM.
